Assay results reported in patent US8465945B2, “Method for production and use of mite group 1 proteins” (Merck Patent GmbH, priority 1999, dated 2013).

What was measured:
[1] = tested on: IgE from mite-allergic or normal human sera; assay: ELISA, binding of IgE from human sera to coated Der f 1 proteins or mite extracts, detected with FcεR1α-biotin
[2] = tested on: IgE from pooled mite-allergic human sera; assay: Monoclonal Capture ELISA (Example 8B, Table 7); format: binding
Protocol: Assays were carried out as follows. A microtiter plate as described in Example 5 was coated overnight at 4° C. with 100 ng/well of anti-Der f 1 protein monoclonal antibody 6A8, denoted herein as anti-Der f 1 MAb 6A8, provided by Dr. Martin Chapman. The plate was washed in the manner described above. The following proteins were then added to wells, having been diluted in Assay Buffer in a 2-fold dilution series, from 0.75 to 50 ng/well: Heska native Derf1, P. pastoris-expressed PDerf1303b, and E. coli-expressed PDerf1303c. After incubation for 1 hour at room temperature, plates were washed as described in Example 5. Then 100 μl per well of a 1:1000 dilution in Assay Buffer of biotinylated anti-Der f 1 monoclonal antibody 4C1, also denoted anti-Der f 1 MAb 4C1, provided by Dr. Martin Chapman, was added for 1 hour at room temperature. Plates were washed, streptavidin-HRP conjugate was added, and plates were developed as described in Example 5.
B. The Der f 1 proteins described in Example 8B were reacted as described in Example 6 with a pool of serum samples collected from 16 mite-allergic human patients.

[3] = tested on: IgE from mite-allergic dog sera; assay: ELISA, binding of IgE from dog sera to coated Der f 1 proteins or mite extracts, detected with FcεR1α-biotin
Protocol: Native or recombinant Der f 1 proteins in 100 μl CBC buffer (50 mM sodium carbonate, pH 9.6) were coated onto wells (100 ng per well) of Immulon II microtiter plates (available from Dynex Technologies, Chantilly, Va.) by incubation at 4° C., covered, overnight. Excess fluid was removed and wells were blocked with 200 μl Assay Buffer (4% fetal calf serum (available from Summit Laboratories, Fort Collins, Colo.) in phosphate buffered saline (PBS, recipe in Sambrook, ibid.), plus 0.05% Tween-20 (available from Sigma, St. Louis, Mo.)) for one hour at room temperature. Plates were then washed for 4 cycles on an automatic plate washer (Ultrawash, available from Dynatech Laboratories) using PBS with 0.05% Tween-20. […] Control wells were treated identically except that no serum was added. Plates were then washed as described above. Biotinylated human IgE receptor alpha chain (FcεR1α-biotin) (100 μl of 1.3 ng/ml) prepared as described in U.S. Pat. No. 5,945,294, ibid., was added and incubated for one hour at room temperature. After this incubation, plates were washed as described above. Streptavidin-horseradish peroxidase conjugate (0.5 mg/ml, available from KPL Labs, Gaithersburg, Md.) was added at a 1:5000 dilution in Assay Buffer for one hour at room temperature, after which plates were washed as described above. TMB Peroxidase substrate system, 2 part (available from KPL Labs, #0-76-00), added at 100 μl per well, was used according to the manufacturer's directions. The color reaction was allowed to proceed until good color development was reached (about 10-15 min); then the reaction was stopped with 100 μl per well of 1 M phosphoric acid. Bound IgE was determined by measuring absorbance (Optical Density, or OD) at 450 nm (nanometers) using an ELISA plate reader (such as Spectramax”, Molecular Devices, Sunnyvale, Calif.). Background OD readings in the control wells were subtracted from all numbers. Results are reported in Tables 1, 2 and 3 as OD multiplied by 1000. OD numbers greater than 100 are considered to be positive for a reaction with IgE. P. pastoris-expressed proteins are denoted in the Tables as Pichia expressed proteins.

IgE = settings: literature reports (Chua et al 1992; Shoji et al 1996, 1997); cited from earlier work
[4] = Table 6, pool of sera from 16 mite-allergic human patients, 6.2 ng protein per well
[5] = Table 6, pool of sera from 16 mite-allergic human patients, 12.5 ng protein per well
[6] = Table 6, pool of sera from 16 mite-allergic human patients, 25 ng protein per well
[7] = Table 6, pool of sera from 16 mite-allergic human patients, 50 ng protein per well
[8] = Table 6, pool of sera from 16 mite-allergic human patients, 100 ng protein per well
[9] = Table 6, pool of sera from 16 mite-allergic human patients, 200 ng protein per well

B1: Chapman native Derf1: Native purified Der f 1 protein, purified in the laboratory of Martin Chapman (protein)
chain: TSACRINSVNVPSELDLRSLRTVTPIRMQGGCGSCWAFSGVAATESAYLAYRNTSLDLSEQELVDCASQHGCHGDTIPRGIEYIQQNGVVEERSYPYVAREQRCRRPNSQHYGISNYCQIYPPDVKQIREALTQTHTAIAVIIGIKDLRAFQHYDGRTIIQHDNGYQPNYHAVNIVGYGSTQGDDYWIVRNSWDTTWGDSGYGYFQAGNNLMMIEQYPYVVIM
OD, bound IgE ([1]; Assay Number 1, serum human 1916): 17 OD multiplied by 1000 | OD, bound IgE ([1]; Assay Number 1, serum human3848): 2336 OD multiplied by 1000 | OD, bound IgE ([1]; Assay Number 1, serum human 3958): 1261 OD multiplied by 1000 | OD, bound IgE ([1]; Assay Number 1, serum human 3960): 1024 OD multiplied by 1000 | OD, bound IgE ([1]; Assay Number 1, serum human 3961): 326 OD multiplied by 1000 | OD, bound IgE ([1]; Assay Number 1, serum human 3987): 1216 OD multiplied by 1000 | OD, bound IgE ([1]; Assay Number 1, serum human 4289): 287 OD multiplied by 1000 | OD, bound IgE ([1]; Assay Number 1, serum human 4467): 615 OD multiplied by 1000 | OD, bound IgE ([1]; Assay Number 1, serum human 5207): 2669 OD multiplied by 1000 | OD, bound IgE ([1]; Assay Number 1, serum human pool): 1531 OD multiplied by 1000 | OD, bound IgE ([1]; Assay Number 2, serum Heska human B): 0 OD multiplied by 1000 | OD, bound IgE ([1]; Assay Number 2, serum Heska human C): 0 OD multiplied by 1000 | OD, bound IgE ([1]; Assay Number 2, serum Heska human D): 0 OD multiplied by 1000 | OD, bound IgE ([1]; Assay Number 2, serum Heska human E): 2 OD multiplied by 1000 | OD, bound IgE ([1]; Assay Number 2, serum Heska human F): 0 OD multiplied by 1000 | OD, bound IgE ([1]; Assay Number 2, serum Heska human G): 0 OD multiplied by 1000 | OD, bound IgE ([1]; Assay Number 2, serum Heska human H): 0 OD multiplied by 1000 | OD, bound IgE ([1]; Assay Number 2, serum Heska human I): 0 OD multiplied by 1000 | OD, bound IgE ([1]; Assay Number 2, serum Heska human J): 0 OD multiplied by 1000 | OD, bound IgE ([1]; Assay Number 2, serum Heska human K): 0 OD multiplied by 1000 | OD, bound IgE ([1]; Assay Number 2, serum Heska human L): 0 OD multiplied by 1000 | OD, bound IgE ([1]; Assay Number 2, serum Heska human M): 0 OD multiplied by 1000 | OD, bound IgE ([1]; Assay Number 2, serum Heska human N): 373 OD multiplied by 1000 | OD, bound IgE ([1]; Assay Number 2, serum Heska human O): 0 OD multiplied by 1000 | OD, bound IgE ([1]; Assay Number 2, serum Heska human P): 0 OD multiplied by 1000 | OD, bound IgE ([1]; Assay Number 2, serum Heska human Q): 0 OD multiplied by 1000 | OD, bound IgE ([1]; Assay Number 2, serum Heska human R): 0 OD multiplied by 1000 | OD, bound IgE ([1]; Assay Number 2, serum human 1916): 8 OD multiplied by 1000 | OD, bound IgE ([1]; Assay Number 2, serum human 3848): 1726 OD multiplied by 1000 | OD, bound IgE ([1]; Assay Number 2, serum human 3958): 822 OD multiplied by 1000 | OD, bound IgE ([1]; Assay Number 2, serum human 3960): 522 OD multiplied by 1000 | OD, bound IgE ([1]; Assay Number 2, serum human 3961): 169 OD multiplied by 1000 | OD, bound IgE ([1]; Assay Number 2, serum human 3987): 846 OD multiplied by 1000 | OD, bound IgE ([1]; Assay Number 2, serum human 4289): 173 OD multiplied by 1000 | OD, bound IgE ([1]; Assay Number 2, serum human 4467): 353 OD multiplied by 1000 | OD, bound IgE ([1]; Assay Number 2, serum human 5207): 2171 OD multiplied by 1000 | OD, bound IgE ([1]; Assay Number 2, serum human pool): 1236 OD multiplied by 1000 | OD, bound IgE ([1]; Table 3, sera 429, PDerf1303b preparation number A166-26, PDerf1223b preparation 1000-7): 152 OD multiplied by 1000 | OD, bound IgE ([1]; Table 3, sera 1916, PDerf1303b preparation number A166-26, PDerf1223b preparation 1000-7): 14 OD multiplied by 1000 | OD, bound IgE ([1]; Table 3, sera 3848, PDerf1303b preparation number A166-26, PDerf1223b preparation 1000-7): 1033 OD multiplied by 1000 | OD, bound IgE ([1]; Table 3, sera 3958, PDerf1303b preparation number A166-26, PDerf1223b preparation 1000-7): 1067 OD multiplied by 1000 | OD, bound IgE ([1]; Table 3, sera 3960, PDerf1303b preparation number A166-26, PDerf1223b preparation 1000-7): 738 OD multiplied by 1000 | OD, bound IgE ([1]; Table 3, sera 3961, PDerf1303b preparation number A166-26, PDerf1223b preparation 1000-7): 221 OD multiplied by 1000 | OD, bound IgE ([1]; Table 3, sera 3987, PDerf1303b preparation number A166-26, PDerf1223b preparation 1000-7): 865 OD multiplied by 1000 | OD, bound IgE ([1]; Table 3, sera 4467, PDerf1303b preparation number A166-26, PDerf1223b preparation 1000-7): 489 OD multiplied by 1000 | OD, bound IgE ([1]; Table 3, sera 5207, PDerf1303b preparation number A166-26, PDerf1223b preparation 1000-7): 1836 OD multiplied by 1000 | OD, bound IgE ([1]; Table 3, sera human pool, PDerf1303b preparation number A166-26, PDerf1223b preparation 1000-7): 1114 OD multiplied by 1000 | OD, bound IgE [1, 4]: 17 OD | OD, bound IgE [1, 5]: 116 OD | OD, bound IgE [1, 6]: 215 OD | OD, bound IgE [1, 7]: 488 OD | OD, bound IgE [1, 8]: 581 OD | OD, bound IgE [1, 9]: 584 OD | OD, Monoclonal Capture ELISA ([2]; 0.39 ng protein per well): 1480 OD | OD, Monoclonal Capture ELISA ([2]; 0.78 ng protein per well): 2186 OD | OD, Monoclonal Capture ELISA ([2]; 1.55 ng protein per well): 2447 OD | OD, Monoclonal Capture ELISA ([2]; 3.1 ng protein per well): 2597 OD | OD, Monoclonal Capture ELISA ([2]; 6.25 ng protein per well): 2620 OD | OD, Monoclonal Capture ELISA ([2]; 12.5 ng protein per well): 2483 OD | OD, Monoclonal Capture ELISA ([2]; 25 ng protein per well): 2249 OD | OD, bound IgE ([3]; Assay Number 1, serum dog pool): 341 OD multiplied by 1000 | OD, bound IgE ([3]; Assay Number 1, serum dog-1): 6 OD multiplied by 1000 | OD, bound IgE ([3]; Assay Number 1, serum dog-2): 1408 OD multiplied by 1000 | OD, bound IgE ([3]; Assay Number 1, serum dog-3): 3125 OD multiplied by 1000 | OD, bound IgE ([3]; Assay Number 2, dog sera pool A 146): 220 OD multiplied by 1000 | OD, bound IgE ([3]; Assay Number 2, dog sera pool KS338): 19 OD multiplied by 1000

B2: Der f 1 pro-form: Recombinant Der f 1 pro-form from baculovirus expression system in insect cells (Shoji et al) (protein, listed as Dermatophagoides farinae)
chain: RPASIKTFEEFKKAFNKNYATVEEEEVARKNFLESLKYVEANKGAINHLSDLSLDEFKNRYLMSAEAFEQLKTQFDLNAETSACRINSVNVPSELDLRSLRTVTPIRMQGGCGSCWAFSGVAATESAYLAYRNTSLDLSEQELVDCASQHGCHGDTIPRGIEYIQQNGVVEERSYPYVAREQRCRRPNSQHYGISNYCQIYPPDVKQIREALTQTHTAIAVIIGIKDLRAFQHYDGRTIIQHDNGYQPNYHAVNIVGYGSTQGDDYWIVRNSWDTTWGDSGYGYFQAGNNLMMIEQYPYVVIM
IgE reactivity relative to the native protein (IgE): 20%

B3: PDerf1303d: P. pastoris HCY288-expressed Der f 1 lacking N-glycosylation site, asparagine 133 replaced by glutamine (SEQ ID NO:38) (protein, listed as Dermatophagoides farinae)
chain: RPASIKTFEEFKKAFNKNYATVEEEEVARKNFLESLKYVEANKGAINHLSDLSLDEFKNRYLMSAEAFEQLKTQFDLNAETSACRINSVNVPSELDLRSLRTVTPIRMQGGCGSCWAFSGVAATESAYLAYRQTSLDLSEQELVDCASQHGCHGDTIPRGIEYIQQNGVVEERSYPYVAREQRCRRPNSQHYGISNYCQIYPPDVKQIREALTQTHTAIAVIIGIKDLRAFQHYDGRTIIQHDNGYQPNYHAVNIVGYGSTQGDDYWIVRNSWDTTWGDSGYGYFQAGNNLMMIEQYPYVVIM
OD, bound IgE [1, 4]: 88 OD | OD, bound IgE [1, 5]: 347 OD | OD, bound IgE [1, 6]: 591 OD | OD, bound IgE [1, 7]: 779 OD | OD, bound IgE [1, 8]: 1097 OD | OD, bound IgE [1, 9]: 1448 OD | OD, Monoclonal Capture ELISA ([2]; 0.39 ng protein per well): 1380 OD | OD, Monoclonal Capture ELISA ([2]; 0.78 ng protein per well): 1963 OD | OD, Monoclonal Capture ELISA ([2]; 1.55 ng protein per well): 2626 OD | OD, Monoclonal Capture ELISA ([2]; 3.1 ng protein per well): 2913 OD | OD, Monoclonal Capture ELISA ([2]; 6.25 ng protein per well): 2991 OD | OD, Monoclonal Capture ELISA ([2]; 12.5 ng protein per well): 3037 OD | OD, Monoclonal Capture ELISA ([2]; 25 ng protein per well): 3007 OD
